Results from patent US20060084791A1.
Values joined by “and” are separate entries in the source; they are usually repeats but may differ in a detail not shown here. Identical values can stand only once.

Key:
Experiment in all cases: cell-based or functional assay
[1] = target: ecotropic receptor mCAT-1 (UniProt Q09143)
[2] = target: polytropic/xenotropic receptor encoded by the Rmc1 locus of the NIH Swiss inbred NFS/N mouse (mouse (NIH Swiss; NIH 3T3 cells)) (UniProt Q9Z0U0)
[3] = target: human polytropic/xenotropic receptor encoded by the human RMC1 locus (human) (UniProt Q9UBH6)
human polytropic/xenotropic receptor encoded by the human RMC1 locus (human), sequence (Q9UBH6 whole entry): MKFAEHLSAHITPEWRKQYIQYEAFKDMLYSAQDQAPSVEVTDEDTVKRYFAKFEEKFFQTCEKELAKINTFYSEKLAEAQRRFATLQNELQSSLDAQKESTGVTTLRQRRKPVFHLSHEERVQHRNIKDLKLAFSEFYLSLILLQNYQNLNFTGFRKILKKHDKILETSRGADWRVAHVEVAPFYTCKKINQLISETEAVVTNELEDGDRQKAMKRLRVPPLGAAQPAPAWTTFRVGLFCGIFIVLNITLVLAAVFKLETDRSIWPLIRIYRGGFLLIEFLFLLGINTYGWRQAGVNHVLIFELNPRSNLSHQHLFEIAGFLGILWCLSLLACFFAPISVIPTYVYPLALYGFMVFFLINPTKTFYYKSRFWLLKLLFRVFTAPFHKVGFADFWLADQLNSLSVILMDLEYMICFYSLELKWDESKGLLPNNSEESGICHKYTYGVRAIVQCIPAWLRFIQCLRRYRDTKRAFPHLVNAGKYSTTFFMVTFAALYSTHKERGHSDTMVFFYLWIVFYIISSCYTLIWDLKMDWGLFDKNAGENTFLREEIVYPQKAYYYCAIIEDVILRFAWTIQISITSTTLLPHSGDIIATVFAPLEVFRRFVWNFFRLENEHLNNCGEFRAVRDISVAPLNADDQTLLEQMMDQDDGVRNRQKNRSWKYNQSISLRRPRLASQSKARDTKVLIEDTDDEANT

ecotropic receptor mCAT-1, sequence (Q09143 whole entry): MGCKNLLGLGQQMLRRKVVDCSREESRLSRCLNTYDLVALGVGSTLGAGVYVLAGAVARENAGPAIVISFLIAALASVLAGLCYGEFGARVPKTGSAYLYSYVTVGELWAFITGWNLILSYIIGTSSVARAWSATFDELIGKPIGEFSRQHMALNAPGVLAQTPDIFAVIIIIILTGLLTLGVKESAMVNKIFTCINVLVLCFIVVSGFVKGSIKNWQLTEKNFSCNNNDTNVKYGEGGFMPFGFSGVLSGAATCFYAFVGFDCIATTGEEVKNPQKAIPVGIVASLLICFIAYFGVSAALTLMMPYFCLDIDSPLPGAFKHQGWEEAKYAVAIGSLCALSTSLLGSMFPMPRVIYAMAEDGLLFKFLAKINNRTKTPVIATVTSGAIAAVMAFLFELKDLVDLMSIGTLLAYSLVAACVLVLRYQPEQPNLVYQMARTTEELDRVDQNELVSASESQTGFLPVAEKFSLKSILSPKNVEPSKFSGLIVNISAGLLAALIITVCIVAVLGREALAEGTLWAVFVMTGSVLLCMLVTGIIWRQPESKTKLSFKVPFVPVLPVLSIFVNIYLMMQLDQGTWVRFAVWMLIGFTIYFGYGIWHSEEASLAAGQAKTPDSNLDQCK
polytropic/xenotropic receptor encoded by the Rmc1 locus of the NIH Swiss inbred NFS/N mouse (mouse (NIH Swiss; NIH 3T3 cells)), sequence (Q9Z0U0 whole entry): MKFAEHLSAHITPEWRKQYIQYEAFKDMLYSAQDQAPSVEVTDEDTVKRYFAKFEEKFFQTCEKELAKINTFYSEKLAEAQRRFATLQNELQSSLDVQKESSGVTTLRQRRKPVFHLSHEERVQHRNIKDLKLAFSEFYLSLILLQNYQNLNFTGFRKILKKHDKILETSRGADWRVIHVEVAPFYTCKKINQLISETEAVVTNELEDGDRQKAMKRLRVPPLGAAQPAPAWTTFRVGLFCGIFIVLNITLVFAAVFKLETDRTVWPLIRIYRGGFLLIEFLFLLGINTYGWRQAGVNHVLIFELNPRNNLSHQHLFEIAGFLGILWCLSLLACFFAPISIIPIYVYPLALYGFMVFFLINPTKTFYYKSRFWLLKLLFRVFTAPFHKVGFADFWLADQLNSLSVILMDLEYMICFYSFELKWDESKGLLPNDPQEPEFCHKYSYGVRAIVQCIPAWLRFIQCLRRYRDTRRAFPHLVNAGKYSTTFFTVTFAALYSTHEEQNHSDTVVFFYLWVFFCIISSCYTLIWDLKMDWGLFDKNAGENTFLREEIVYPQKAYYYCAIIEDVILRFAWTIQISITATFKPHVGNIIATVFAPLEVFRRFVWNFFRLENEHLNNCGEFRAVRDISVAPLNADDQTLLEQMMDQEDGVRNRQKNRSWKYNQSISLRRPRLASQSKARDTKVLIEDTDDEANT

Question: How did the fold lowering of titer on PSI-2 cells against NIH 3T3 cells [1] turn out when “Akv MLV envelope protein (ecotropic envelope) (from UniProt P03386 32-669)” was run?
Answer: The fold lowering of titer on PSI-2 cells against NIH 3T3 cells was 10000 fold.

Question: And the titer of mini-virus on HeLa mCAT cells [1]?
Answer: The titer of mini-virus on HeLa mCAT cells was 50000 cfu/mL and 30000 cfu/mL.

Question: What about the titer of mini-virus on NIH3T3 cells [1] of the same substance?
Answer: Its titer of mini-virus on NIH3T3 cells is 1.6e+06 cfu/mL and 800000 cfu/mL.

Question: And the titer of mini-virus on PSI-2 cells (ecotropic receptor blocked by ecotropic envelope) [1]?
Answer: The titer of mini-virus on PSI-2 cells (ecotropic receptor blocked by ecotropic envelope) was 170 cfu/mL and 120 cfu/mL.

Question: What does the source list for “MCF 247 envelope protein (polytropic MLV MCF-247)”?
Answer: titer on NIH 3T3 (murine) cells [2]: 4.8e+06 c.f.u./ml; Titer on 293 cells [3]: 2400 c.f.u./ml; Titer on Human HeLa cells [3]: 2 c.f.u./ml; Titer on TE 671 cells transfected with MCF 247 (receptor blocked by MCF 247 envelope) [3]: 16 c.f.u./ml; titer on TE 671 (human) cells [3]: 150 c.f.u./ml

Question: “S/M Leader (SL3-2 envelope with the signal peptide of MCF 247)” was tested. Which titer on NIH 3T3/MCF 247 cells (polytropic receptor blocked) [2] did it give?
Answer: The titer on NIH 3T3/MCF 247 cells (polytropic receptor blocked) was 12.5 cfu/mL.

Question: What about the titer on NIH 3T3 cells [2] of the same substance?
Answer: Its titer on NIH 3T3 cells is 200000 cfu/mL.

Question: And the titer on Psi-2 cells (ecotropic receptor blocked) [2]?
Answer: Its titer on Psi-2 cells (ecotropic receptor blocked) is 100000 cfu/mL.

Question: And the titer on HeLa cells [3]?
Answer: The titer on HeLa cells was 0 cfu/mL.

Question: And the titer on TE 671 cells [3]?
Answer: Its titer on TE 671 cells is 5 cfu/mL.

Question: “S/M VR3 (SL3-2 envelope with the VR3 region of MCF 247) (from UniProt P03388 33-640)” was tested. Which titer on NIH 3T3/MCF 247 cells (polytropic receptor blocked) [2] did it give?
Answer: The titer on NIH 3T3/MCF 247 cells (polytropic receptor blocked) was 2.5 cfu/mL.

Question: And the titer on NIH 3T3 cells [2]?
Answer: The titer on NIH 3T3 cells was 500000 cfu/mL.

Question: What about the titer on Psi-2 cells (ecotropic receptor blocked) [2] of the same substance?
Answer: Its titer on Psi-2 cells (ecotropic receptor blocked) is 300000 cfu/mL.

Question: And the titer on HeLa cells [3]?
Answer: Its titer on HeLa cells is 250 cfu/mL.

Question: What about the titer on TE 671 cells [3] of the same substance?
Answer: The titer on TE 671 cells was 22500 cfu/mL.

Question: What does the source list for “S/M VRA (SL3-2 envelope with the VRA segment of MCF 247)”?
Answer: titer on NIH 3T3/MCF 247 cells (polytropic receptor blocked) [2]: 2.5 cfu/mL; titer on NIH 3T3 cells [2]: 225000 cfu/mL; titer on Psi-2 cells (ecotropic receptor blocked) [2]: 400000 cfu/mL; titer on HeLa cells [3]: 0 cfu/mL; titer on TE 671 cells [3]: 2.5 cfu/mL

Question: Which results are given for “S/M VRB (SL3-2 envelope with the VRB segment of MCF 247)”?
Answer: titer on NIH 3T3/MCF 247 cells (polytropic receptor blocked) [2]: 2.5 cfu/mL; titer on NIH 3T3 cells [2]: 3e+06 cfu/mL; titer on Psi-2 cells (ecotropic receptor blocked) [2]: 500000 cfu/mL; titer on HeLa cells [3]: 0 cfu/mL; titer on TE 671 cells [3]: 5 cfu/mL

Question: Which titer on NIH 3T3 (murine) cells [2] does the source give for “SL3-2 envelope mutant CR (C at 212, R at 213) (from UniProt P03388 33-640)” here?
Answer: The titer on NIH 3T3 (murine) cells was 2.4e+06 c.f.u./ml.

Question: And the titer on TE 671 (human) cells [3]?
Answer: Its titer on TE 671 (human) cells is 12 c.f.u./ml.

Question: “SL3-2 envelope mutant GA (G at 212, A at 213) (from UniProt P03388 33-640)” was tested. Which titer on NIH 3T3 (murine) cells [2] did it give?
Answer: Its titer on NIH 3T3 (murine) cells is 5.6e+06 c.f.u./ml.

Question: What about the titer on TE 671 (human) cells [3] of the same substance?
Answer: The titer on TE 671 (human) cells was 2800 c.f.u./ml.

Question: With “SL3-2 envelope mutant GI (G at 212, I at 213) (from UniProt P03388 33-640)” as the substance, how does the Titer (cfu/mL) on NIH 3T3 cells [2] read?
Answer: Its Titer (cfu/mL) on NIH 3T3 cells is 2e+06 cfu/mL.

Question: What about the titer on NIH 3T3 (murine) cells [2] of the same substance?
Answer: The titer on NIH 3T3 (murine) cells was 7.6e+06 c.f.u./ml.

Question: What about the Titer (cfu/mL) on TE 671 cells [3] of the same substance?
Answer: Its Titer (cfu/mL) on TE 671 cells is 450000 cfu/mL.

Question: And the Titer on 293 cells [3]?
Answer: Its Titer on 293 cells is 200000 c.f.u./ml.

Question: And the Titer on Human HeLa cells [3]?
Answer: Its Titer on Human HeLa cells is 130 c.f.u./ml.

Question: What about the Titer on TE 671 cells transfected with MCF 247 (receptor blocked by MCF 247 envelope) [3] of the same substance?
Answer: Its Titer on TE 671 cells transfected with MCF 247 (receptor blocked by MCF 247 envelope) is 6000 c.f.u./ml.

Question: And the fold decrease of titer on TE 671 cells expressing MCF 247 envelope [3]?
Answer: Its fold decrease of titer on TE 671 cells expressing MCF 247 envelope is 100 fold.

Question: What about the fold rise of titer on human cells against wild type SL3-2 [3] of the same substance?
Answer: Its fold rise of titer on human cells against wild type SL3-2 is 100000 fold.

Question: And the titer on TE 671 (human) cells [3]?
Answer: Its titer on TE 671 (human) cells is 440000 c.f.u./ml.

Question: Which titer on NIH 3T3 (murine) cells [2] does the source give for “SL3-2 envelope mutant GK (G at 212, K at 213) (from UniProt P03388 33-640)” here?
Answer: Its titer on NIH 3T3 (murine) cells is 5.2e+06 c.f.u./ml.

Question: What about the titer on TE 671 (human) cells [3] of the same substance?
Answer: The titer on TE 671 (human) cells was 5600 c.f.u./ml.

Question: With “SL3-2 envelope mutant GT (G at 212, T at 213) (from UniProt P03388 33-640)” as the substance, how does the Titer (cfu/mL) on NIH 3T3 cells [2] read?
Answer: Its Titer (cfu/mL) on NIH 3T3 cells is 2e+06 cfu/mL.

Question: What about the titer on NIH 3T3 (murine) cells [2] of the same substance?
Answer: Its titer on NIH 3T3 (murine) cells is 8.4e+06 c.f.u./ml.

Question: What about the Titer (cfu/mL) on TE 671 cells [3] of the same substance?
Answer: The Titer (cfu/mL) on TE 671 cells was 1500 cfu/mL.

Question: What about the titer on TE 671 (human) cells [3] of the same substance?
Answer: The titer on TE 671 (human) cells was 520 c.f.u./ml.

Question: Which results are given for “SL3-2 envelope mutant GV (G at 212, V at 213) (from UniProt P03388 33-640)”?
Answer: titer on NIH 3T3 (murine) cells [2]: 3.6e+06 c.f.u./ml; titer on TE 671 (human) cells [3]: 320000 c.f.u./ml

Question: What does the source list for “SL3-2 envelope mutant LA (L at 212, A at 213) (from UniProt P03388 33-640)”?
Answer: titer on NIH 3T3 (murine) cells [2]: 1.1e+07 c.f.u./ml; titer on TE 671 (human) cells [3]: 5200 c.f.u./ml

Question: “SL3-2 envelope mutant LI (L at 212, I at 213) (from UniProt P03388 33-640)” was tested. Which titer on NIH 3T3 (murine) cells [2] did it give?
Answer: Its titer on NIH 3T3 (murine) cells is 2.4e+06 c.f.u./ml.

Question: And the Titer on 293 cells [3]?
Answer: The Titer on 293 cells was 12000 c.f.u./ml.

Question: What about the Titer on TE 671 cells transfected with MCF 247 (receptor blocked by MCF 247 envelope) [3] of the same substance?
Answer: Its Titer on TE 671 cells transfected with MCF 247 (receptor blocked by MCF 247 envelope) is 68 c.f.u./ml.

Question: What about the fold decrease of titer on TE 671 cells expressing MCF 247 envelope [3] of the same substance?
Answer: Its fold decrease of titer on TE 671 cells expressing MCF 247 envelope is 100 fold.

Question: And the titer on TE 671 (human) cells [3]?
Answer: Its titer on TE 671 (human) cells is 1200 c.f.u./ml.

Question: Which titer on NIH 3T3 (murine) cells [2] does the source give for “SL3-2 envelope mutant LV (L at 212, V at 213) (from UniProt P03388 33-640)” here?
Answer: Its titer on NIH 3T3 (murine) cells is 3.6e+06 c.f.u./ml.

Question: What about the titer on TE 671 (human) cells [3] of the same substance?
Answer: The titer on TE 671 (human) cells was 16000 c.f.u./ml.

Question: What does the source list for “SL3-2 envelope mutant MA (M at 212, A at 213) (from UniProt P03388 33-640)”?
Answer: titer on NIH 3T3 (murine) cells [2]: 9.6e+06 c.f.u./ml; titer on TE 671 (human) cells [3]: 250000 c.f.u./ml

Question: For “SL3-2 envelope mutant MI (M at 212, I at 213) (from UniProt P03388 33-640)”, which titer on NIH 3T3 (murine) cells [2] is on record?
Answer: Its titer on NIH 3T3 (murine) cells is 240000 c.f.u./ml.

Question: What about the titer on TE 671 (human) cells [3] of the same substance?
Answer: The titer on TE 671 (human) cells was 28000 c.f.u./ml.

Question: How did the titer on NIH 3T3 (murine) cells [2] turn out when “SL3-2 envelope mutant MV (M at 212, V at 213) (from UniProt P03388 33-640)” was run?
Answer: The titer on NIH 3T3 (murine) cells was 9.6e+06 c.f.u./ml.

Question: And the Titer on 293 cells [3]?
Answer: The Titer on 293 cells was 240000 c.f.u./ml.

Question: And the Titer on Human HeLa cells [3]?
Answer: The Titer on Human HeLa cells was 100 c.f.u./ml.

Question: What about the Titer on TE 671 cells transfected with MCF 247 (receptor blocked by MCF 247 envelope) [3] of the same substance?
Answer: The Titer on TE 671 cells transfected with MCF 247 (receptor blocked by MCF 247 envelope) was 16000 c.f.u./ml.

Question: What about the fold decrease of titer on TE 671 cells expressing MCF 247 envelope [3] of the same substance?
Answer: Its fold decrease of titer on TE 671 cells expressing MCF 247 envelope is 100 fold.

Question: And the fold rise of titer on human cells against the GI mutant [3]?
Answer: The fold rise of titer on human cells against the GI mutant was > 10 fold.

Question: And the titer on TE 671 (human) cells [3]?
Answer: Its titer on TE 671 (human) cells is 7.2e+06 c.f.u./ml.

Question: What does the source list for “SL3-2 envelope mutant RA (R at 212, A at 213) (from UniProt P03388 33-640)”?
Answer: titer on NIH 3T3 (murine) cells [2]: 1e+07 c.f.u./ml; titer on TE 671 (human) cells [3]: 4 c.f.u./ml

Question: “SL3-2 envelope mutant RI (R at 212, I at 213) (from UniProt P03388 33-640)” was tested. Which Titer (cfu/mL) on NIH 3T3 cells [2] did it give?
Answer: The Titer (cfu/mL) on NIH 3T3 cells was 3.25e+06 cfu/mL.

Question: And the titer on NIH 3T3 (murine) cells [2]?
Answer: Its titer on NIH 3T3 (murine) cells is 6.4e+06 c.f.u./ml.

Question: And the Titer (cfu/mL) on TE 671 cells [3]?
Answer: Its Titer (cfu/mL) on TE 671 cells is 22.5 cfu/mL.

Question: And the titer on TE 671 (human) cells [3]?
Answer: Its titer on TE 671 (human) cells is 24 c.f.u./ml.

Question: How did the Titer (cfu/mL) on TE 671 cells [3] turn out when “SL3-2 envelope polypeptide (wild type envelope protein of Murine Leukaemia Virus SL3-2) (from UniProt P03388 33-640)” was run?
Answer: Its Titer (cfu/mL) on TE 671 cells is 4.75 cfu/mL.

Question: And the Titer on 293 cells [3]?
Answer: Its Titer on 293 cells is < 2 c.f.u./ml.

Question: What about the Titer on Human HeLa cells [3] of the same substance?
Answer: The Titer on Human HeLa cells was < 2 c.f.u./ml.

Question: What about the titer on HeLa cells [3] of the same substance?
Answer: The titer on HeLa cells was 0 cfu/mL.

Question: What about the titer on TE 671 (human) cells [3] of the same substance?
Answer: The titer on TE 671 (human) cells was < 4 c.f.u./ml.

Question: And the titer on TE 671 cells [3]?
Answer: Its titer on TE 671 cells is < 2 c.f.u./ml.
